B1: Protein enabled (Drosophila melanogaster (Fruit fly)), Q8T4F7 (parent)
chain: MAMKKLYAKTSFTSKKPSSAANSTPILAYHQQQHQQPGNGICEFQVVAPGHSGELMIRRSQSMHHKMSPPVGGLGSKSEYYSIEELQELDLLDYRHPMYHHYQQQELRQRYHEHEQLVLQLPKATSPKAGPIYEAPQRSQQQQDQMLYVPTAAQRDSSSSAAATSIASSSTLTSSPSPSSSSSLIFSTLRKCVSPSNPSVNPNQPSKTQPSKLGCSMSFSIRTTTATAATAAAANAATATLSTQQQQQQAQQQHKQHLYSNIHHYLIRQQQQKQHYTLQRRHNSVKDKFIGGITTIFAEQSIIGARASVMVYDDNQKKWVPSGSSSGLSKVQIYHHQQNNTFRVVGRKLQDHEVVINCSILKGLKYNQATATFHQWRDSKFVYGLNFSSQNDAENFARAMMHALEVLSGRVANNPGGPPTNGNGYEEDMGYRTMTSEDAAILRQNNSIGGHVTPSAQTPTSQTNQNNIPQSPPTPQGHHRTSSAPPAPQPQQQQQQQQAQQMGQPGSHYGPTGNGPTSNGLPQQVNSQIPPAPQQQPQQQQFQQQQQQQQYQQMVQAGYAPSQQYQQPHYVLSNSNPNLTVHQYPTQQAQQQPPQAPQPPLQNGGMYMVGHGHLPSSASANSVVYASQQQMLPQAHPQAPQAPTMPGPGYGGPPVPPPQQQAENPYGQVPMPPPMNPSQQQQPGQVPLNRMSSQGGPGGPPAPAPPPPPPSFGGAAGGGPPPPAPPQMFNGAPPPPAMGGGPPPAPPAPPAMGGGPPPAPGGPGAPPPPPPPPGLGGAPKKEDPQADLMGSLASQLQQIKLKKNKVTTSAPENSGSSTSSGGSGNYGTIGRSSNGMASMMDEMAKTLARRRAQAEKKDPDPEAEVKKRPWEKSNTLPHKLSGGAGSGSAGSGHEGANGNSGGAGSNTTNSGGESPRPMRKRFGSASEETILKVNGDGLSLALSNGDLDTLKAEIVREMRLEIQKVKNEIIDAIKSEFNRR

Tests used:
abl_drome Abl, P00522 = variants of: B1; details: with abl_drome Abl
abl_drome Abl, P00522, sequence (P00522 whole entry): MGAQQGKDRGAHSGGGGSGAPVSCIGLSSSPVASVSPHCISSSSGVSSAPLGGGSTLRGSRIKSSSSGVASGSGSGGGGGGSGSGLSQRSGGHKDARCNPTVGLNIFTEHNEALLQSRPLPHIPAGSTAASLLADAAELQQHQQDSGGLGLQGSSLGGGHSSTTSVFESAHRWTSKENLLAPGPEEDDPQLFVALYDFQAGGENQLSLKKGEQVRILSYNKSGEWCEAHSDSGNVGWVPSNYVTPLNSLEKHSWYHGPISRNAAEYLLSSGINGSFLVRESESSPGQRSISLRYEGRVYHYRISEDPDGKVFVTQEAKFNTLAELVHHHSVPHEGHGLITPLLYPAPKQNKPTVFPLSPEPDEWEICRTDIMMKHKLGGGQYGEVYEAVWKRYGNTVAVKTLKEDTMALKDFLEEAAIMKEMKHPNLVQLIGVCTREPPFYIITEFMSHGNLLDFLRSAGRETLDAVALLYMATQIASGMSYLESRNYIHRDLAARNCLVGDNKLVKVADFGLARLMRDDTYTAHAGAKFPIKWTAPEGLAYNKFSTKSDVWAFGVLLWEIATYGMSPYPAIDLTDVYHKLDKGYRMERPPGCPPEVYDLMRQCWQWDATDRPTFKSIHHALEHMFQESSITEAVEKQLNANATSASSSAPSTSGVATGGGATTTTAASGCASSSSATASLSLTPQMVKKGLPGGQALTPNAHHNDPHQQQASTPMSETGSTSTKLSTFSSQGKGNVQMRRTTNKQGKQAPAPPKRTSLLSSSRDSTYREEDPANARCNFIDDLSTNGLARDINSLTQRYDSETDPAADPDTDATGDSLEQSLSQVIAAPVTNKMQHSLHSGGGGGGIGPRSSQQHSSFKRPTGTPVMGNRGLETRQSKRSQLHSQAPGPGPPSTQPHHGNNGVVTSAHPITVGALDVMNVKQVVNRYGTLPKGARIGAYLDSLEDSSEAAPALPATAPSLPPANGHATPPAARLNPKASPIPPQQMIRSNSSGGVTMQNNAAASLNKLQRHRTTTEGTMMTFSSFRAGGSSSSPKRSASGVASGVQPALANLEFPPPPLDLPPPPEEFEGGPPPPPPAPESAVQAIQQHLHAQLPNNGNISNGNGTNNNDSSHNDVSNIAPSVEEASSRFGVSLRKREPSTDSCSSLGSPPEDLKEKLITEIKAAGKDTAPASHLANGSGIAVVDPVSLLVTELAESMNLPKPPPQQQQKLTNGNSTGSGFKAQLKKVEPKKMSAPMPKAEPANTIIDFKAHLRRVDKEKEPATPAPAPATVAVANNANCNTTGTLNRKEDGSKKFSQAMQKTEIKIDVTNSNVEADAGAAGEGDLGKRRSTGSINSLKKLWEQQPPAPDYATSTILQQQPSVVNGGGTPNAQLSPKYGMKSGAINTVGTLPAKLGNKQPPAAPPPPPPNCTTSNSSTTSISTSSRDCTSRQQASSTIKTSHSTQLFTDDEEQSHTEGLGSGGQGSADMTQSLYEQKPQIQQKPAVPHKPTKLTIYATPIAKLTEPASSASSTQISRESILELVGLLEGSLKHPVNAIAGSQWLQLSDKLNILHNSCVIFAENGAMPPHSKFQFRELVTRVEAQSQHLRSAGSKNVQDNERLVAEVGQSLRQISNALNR

src_mouse Src, P05480 = variants of: B1; details: with src_mouse Src

| Variant | effect of a mutation on the interaction (abl_drome Abl, P00522) | effect of a mutation on the interaction (src_mouse Src, P05480) |
| --- | --- | --- |
| P763A;P770A;P771A;P772A | decreasing interaction | decreasing interaction |
| P701A;P707A;P708A;P709A | decreasing interaction | decreasing interaction |

Reference: IntAct's records for PubMed 10220404
